Patent US11278600B2, “Human alpha-galactosidase variants” (Codexis, Inc., priority 2014, dated 2022)
Positions count from the first letter of the chain named.

B1: 550 (protein)
chain: LDNGLARTPTMGWLHWERFMCNLDCQEEPDSCISEKLFMEMAERMVSEGWKDAGYEYLCIDDCWMAPQRDSEGRLQADPQRFPHGIRQLANHVHSKGLKLGIYADVGNKTCAGFPGSFGYYDIDAQTFADWGVDLLKFDGCYCDSLENLADGYKHMSLALNRTGRSIVYSCEWPLYMWPFQKPNYTEIRQYCNHWRNFADIDDSWASIKSILDWTSRNQERIVDVAGPGGWNDPDMLVIGNFGLSWDQQVTQMALWAIMAAPLFMSNDLRHISPQAKALLQDKDVIAINQDPLGSQGYQLRKGDNFEVWERPLSGDAWAVAIINRQEIGGPRSYTIPVASLGKGVACNPACFITQLLPVKRQLGFYNWTSRLKSHINPTGTVLLQLENTMQMSLKDLL
modifications: Synthetic Polypeptide sequence of Variant No. 550 of mature Human GLA
B2: 564 (protein)
chain: B1 chain with S295K, W368V
modifications: Synthetic Polypeptide sequence of Variant No. 564 of mature Human GLA
B3: 560 (protein)
chain: B1 chain with S295K, W368A
modifications: Synthetic Polypeptide sequence of Variant No. 560 of mature Human GLA
B4: 561 (protein)
chain: B1 chain with S295K, W368L
modifications: Synthetic Polypeptide sequence of Variant No. 561 of mature Human GLA
B5: 551 (protein)
chain: B1 chain with S295T
modifications: Synthetic Polypeptide sequence of Variant No. 551 of mature Human GLA
B6: 552 (protein)
chain: B1 chain with S295K, A317D
modifications: Synthetic Polypeptide sequence of Variant No. 552 of mature Human GLA
B7: 562 (protein)
chain: B1 chain with S295K, W368N
modifications: Synthetic Polypeptide sequence of Variant No. 562 of mature Human GLA
B8: 559 (protein)
chain: B1 chain with S295K, L372W
modifications: Synthetic Polypeptide sequence of Variant No. 559 of mature Human GLA
B9: 563 (protein)
chain: B1 chain with S295K, W368R
modifications: Synthetic Polypeptide sequence of Variant No. 563 of mature Human GLA
B10: 557 (protein)
chain: B1 chain with S295K, G344S
modifications: Synthetic Polypeptide sequence of Variant No. 557 of mature Human GLA
B11: 553 (protein)
chain: B1 chain with S295K, A317Q
modifications: Synthetic Polypeptide sequence of Variant No. 553 of mature Human GLA
B12: 517 (protein)
chain: B1 chain with D2Q, S295K
modifications: Synthetic Polypeptide sequence of Variant No. 517 of mature Human GLA
B13: 554 (protein)
chain: B1 chain with S295K, A346G
modifications: Synthetic Polypeptide sequence of Variant No. 554 of mature Human GLA
B14: 558 (protein)
chain: B1 chain with S295K, I353L
modifications: Synthetic Polypeptide sequence of Variant No. 558 of mature Human GLA
B15: 556 (protein)
chain: B1 chain with S295K, G344D
modifications: Synthetic Polypeptide sequence of Variant No. 556 of mature Human GLA
B16: 555 (protein)
chain: B1 chain with S295K, G344A
modifications: Synthetic Polypeptide sequence of Variant No. 555 of mature Human GLA

Experiments:
Type in all cases: biochemical
[1] = HTP-analysis of supernatants pretreated with base (MUGal hydrolysis); details: activity of the variant/activity of Rd3BB (SEQ ID NO: 13); challenge at pH 9.7
Summary of the method: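 GLA variants were secreted by transformed INVSc1 yeast grown 66-84 h at 30° C. Supernatants were exposed to neutral-to-basic buffers (pH 7.0-9.7) at 37° C for 1-18 h, then assayed with MUGal in acidic citrate/McIlvaine buffer, with fluorescence read after quenching.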

[2] = HTP-analysis of yeast culture supernatants, no challenge (MUGal hydrolysis); details: activity of the variant/activity of Rd3BB (SEQ ID NO: 13)
Summary of the method: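 GLA variants were expressed in INVSc1 yeast grown in SD-Ura broth with glucose at 30° C., and culture supernatants were collected after 66-84 h. Supernatant was mixed with McIlvaine buffer pH 4.8 and MUGal (2 mM stock) in 50 mM citrate, 200 mM KCl, pH 4.6, incubated at 37° C. for 30-180 minutes, then quenched with sodium carbonate.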

[3] = HTP-analysis of supernatants pretreated with acid (MUGal hydrolysis); details: activity of the variant/activity of Rd3BB (SEQ ID NO: 13); challenge at pH 3.7
Summary of the method: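 GLA variants were secreted from INVSc1 yeast grown 66-84 h at 30° C. in SD-Ura with 2% glucose; supernatants were mixed with McIlvaine buffer pH 3.3-4.3 and held at 37° C. for 1-3 h. Residual activity on MUGal at pH 4.8 was then measured by fluorescence.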

Row | Molecule | Relative Activity of GLA Variants After Challenge at pH 9.7 [1] | Relative Activity of GLA Variants After No Challenge (NC) [2] | Relative Activity of GLA Variants After Challenge at pH 3.7 [3]
1 | B1 | ++ (++ = >5 to 10 relative activity over Rd3BB (SEQ ID NO: 13)) | + (+ = 1.5 to 5 relative activity over Rd3BB (SEQ ID NO: 13)) | + (+ = 1.5 to 5 relative activity over Rd3BB (SEQ ID NO: 13))
2 | B2 | ++ (++ = >5 to 10 relative activity over Rd3BB (SEQ ID NO: 13)) | + (+ = 1.5 to 5 relative activity over Rd3BB (SEQ ID NO: 13)) | + (+ = 1.5 to 5 relative activity over Rd3BB (SEQ ID NO: 13))
3 | B3 | ++ (++ = >5 to 10 relative activity over Rd3BB (SEQ ID NO: 13)) | + (+ = 1.5 to 5 relative activity over Rd3BB (SEQ ID NO: 13)) | ++ (++ = >5 to 10 relative activity over Rd3BB (SEQ ID NO: 13))
4 | B4 | ++ (++ = >5 to 10 relative activity over Rd3BB (SEQ ID NO: 13)) | + (+ = 1.5 to 5 relative activity over Rd3BB (SEQ ID NO: 13)) | + (+ = 1.5 to 5 relative activity over Rd3BB (SEQ ID NO: 13))
5 | B5 | ++ (++ = >5 to 10 relative activity over Rd3BB (SEQ ID NO: 13)) | + (+ = 1.5 to 5 relative activity over Rd3BB (SEQ ID NO: 13)) | + (+ = 1.5 to 5 relative activity over Rd3BB (SEQ ID NO: 13))
6 | B6 | ++ (++ = >5 to 10 relative activity over Rd3BB (SEQ ID NO: 13)) | + (+ = 1.5 to 5 relative activity over Rd3BB (SEQ ID NO: 13)) | + (+ = 1.5 to 5 relative activity over Rd3BB (SEQ ID NO: 13))
7 | B7 | ++ (++ = >5 to 10 relative activity over Rd3BB (SEQ ID NO: 13)) | + (+ = 1.5 to 5 relative activity over Rd3BB (SEQ ID NO: 13)) | + (+ = 1.5 to 5 relative activity over Rd3BB (SEQ ID NO: 13))
8 | B8 | ++ (++ = >5 to 10 relative activity over Rd3BB (SEQ ID NO: 13)) | + (+ = 1.5 to 5 relative activity over Rd3BB (SEQ ID NO: 13)) | + (+ = 1.5 to 5 relative activity over Rd3BB (SEQ ID NO: 13))
9 | B9 | ++ (++ = >5 to 10 relative activity over Rd3BB (SEQ ID NO: 13)) | + (+ = 1.5 to 5 relative activity over Rd3BB (SEQ ID NO: 13)) | + (+ = 1.5 to 5 relative activity over Rd3BB (SEQ ID NO: 13))
10 | B10 | ++ (++ = >5 to 10 relative activity over Rd3BB (SEQ ID NO: 13)) | + (+ = 1.5 to 5 relative activity over Rd3BB (SEQ ID NO: 13)) | + (+ = 1.5 to 5 relative activity over Rd3BB (SEQ ID NO: 13))
11 | B11 | ++ (++ = >5 to 10 relative activity over Rd3BB (SEQ ID NO: 13)) | + (+ = 1.5 to 5 relative activity over Rd3BB (SEQ ID NO: 13)) | + (+ = 1.5 to 5 relative activity over Rd3BB (SEQ ID NO: 13))
12 | B12 | + (+ = 1.5 to 5 relative activity over Rd3BB (SEQ ID NO: 13)) | + (+ = 1.5 to 5 relative activity over Rd3BB (SEQ ID NO: 13)) | + (+ = 1.5 to 5 relative activity over Rd3BB (SEQ ID NO: 13))
13 | B13 | ++ (++ = >5 to 10 relative activity over Rd3BB (SEQ ID NO: 13)) | + (+ = 1.5 to 5 relative activity over Rd3BB (SEQ ID NO: 13)) | + (+ = 1.5 to 5 relative activity over Rd3BB (SEQ ID NO: 13))
14 | B14 | + (+ = 1.5 to 5 relative activity over Rd3BB (SEQ ID NO: 13)) | − (− = <1.5 relative activity to Rd3BB (SEQ ID NO: 13)) | − (− = <1.5 relative activity to Rd3BB (SEQ ID NO: 13))
15 | B15 | + (+ = 1.5 to 5 relative activity over Rd3BB (SEQ ID NO: 13)) | − (− = <1.5 relative activity to Rd3BB (SEQ ID NO: 13)) | − (− = <1.5 relative activity to Rd3BB (SEQ ID NO: 13))
16 | B16 | + (+ = 1.5 to 5 relative activity over Rd3BB (SEQ ID NO: 13)) | + (+ = 1.5 to 5 relative activity over Rd3BB (SEQ ID NO: 13)) | + (+ = 1.5 to 5 relative activity over Rd3BB (SEQ ID NO: 13))
